Key:
[1] = target: T1, human CS1 on CS1pos OPM2 multiple myeloma cells (human (endogenous in OPM2)) (UniProt Q9NQ25)
T1 sequence: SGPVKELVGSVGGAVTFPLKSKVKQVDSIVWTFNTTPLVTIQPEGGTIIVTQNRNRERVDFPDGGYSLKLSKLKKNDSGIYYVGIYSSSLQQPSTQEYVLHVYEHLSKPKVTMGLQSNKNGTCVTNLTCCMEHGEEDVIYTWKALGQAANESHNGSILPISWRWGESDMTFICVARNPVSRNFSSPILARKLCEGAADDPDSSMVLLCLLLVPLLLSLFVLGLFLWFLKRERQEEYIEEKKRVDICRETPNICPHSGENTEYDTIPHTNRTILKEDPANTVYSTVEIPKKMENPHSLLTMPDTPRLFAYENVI

[2] = target: T2, recombinant human CS1 protein (CS1-(his)C) (human) (UniProt Q9NQ25); experiment: SPR; Biacore T200; recombinant CS1 amine-coupled on a CM5 chip; VHH 100 nM to 3.125 nM in HBS pH 7.4, 25°C; association 180 s, dissociation 300 s; fit '1:1 binding with drift and RI2'; n=1
T2 sequence: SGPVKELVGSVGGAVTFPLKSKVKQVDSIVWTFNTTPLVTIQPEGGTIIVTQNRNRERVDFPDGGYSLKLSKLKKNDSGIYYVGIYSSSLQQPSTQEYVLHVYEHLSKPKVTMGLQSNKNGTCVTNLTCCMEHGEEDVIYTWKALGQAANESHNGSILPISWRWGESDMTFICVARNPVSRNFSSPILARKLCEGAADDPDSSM

[3] = target: T1, human CS1 on CS1pos OPM2 multiple myeloma cells (human (endogenous in OPM2)); experiment: flow cytometry on cells; purified VHH at 200 nM, 1 h at 4°C, on CS1pos OPM2 cells; detected by mouse anti-His IgG1 mAb and APC anti-mouse IgG1 mAb; ΔMFI against the non-targeting control VHH R3B23 at 200 nM; n=1

B1: VHH-2 (VHH)
VHH: DVQLVESGGGLVQPGDSLRLSCTASGRTFENNFMGWFRQPPGKEREFVAAVGWNTGRGYYTDSVKGRFTISRDSAKNTVYLQMNSLKPEDTAVYSCNAPLQSLDRRLPGPYWGQGTQVTVSS
[1]
  tumor uptake of the 99mTc-labelled VHH in subcutaneous CS1pos OPM2 tumors in mice, ex vivo at 90 min p.i. (n=3): 0.48 % IA/g
[2]
  Kd: 49.7 nM
  koff: 0.0318 s⁻¹
  kon: 641000 M⁻¹ s⁻¹
[3]
  ΔMFI [VHH] = 200 nM: 6.09

Reference: publication PMC11077437
